The text below walks through data of US7008922 (RIJKSUNIVERSITEIT TE LEIDEN, dated 2006).

The target in the test is purified HLA-B7 (human). As to the kind of experiment: competition with iodinated … for purified HLA-B7.

For SPSVDKARAEL (also called H-Y peptide; peptide 1171) [SMCY peptide SPSVDKARAEL], the IC50 worked out at 34 nM.

B1: SMCX peptide SPAVDKAQAEL (peptide)
peptide: SPAVDKAQAEL
notes: Synthetic, HPLC-purified peptide; Differs from the SMCY peptide by A for S at position 3 and Q for R at position 8; also called peptide derived from the X chromosomal homolog SMCX (XE169)
Molecule B1 displayed a concentration for half-maximal inhibition (IC50) of 140 nM.
